The assay concerns the target HLA-A*02:01 (Homo sapiens, UniProt P04439, D140Y/D185E/D98H/E176V/E277Q/G131W/G231S/I119V/I121R/I166T/I218V/L300P/L318F/N151K/N90K/P208A/P217A/Q86G/Q94H/R138H/R169H/T345S). Nature of the assay: MHC binding assay (UV-ligand exchange, β2m ELISA, peptide exchange yield). The note with it: MHC class I binding score; binding to HLA-A*02:01 ranged by peptide exchange yield (UV-ligand exchange, β2m ELISA). The procedure, abridged:
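Peptide–HLA-A*02:01 complexes were formed by UV-mediated exchange of a UV-cleavable ligand for the test peptide. Exchange yield was measured by capturing complexes on streptavidin, detecting with HRP anti-β2m antibody (1 h, 37°C) and reading TMB absorbance at 450 nm.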
On the technique in general: In an ELISA, binding on a coated surface is turned into a signal by an enzyme label.
For the substance “476 (ALMERTGYSMV; listed as Homo sapiens) [compound 476]”, the Peptide exchange entry is given as ““+++” (≧50 = +++)”.
With “477 (ALLPASGQIAL; listed as Homo sapiens) [compound 477]” the entry was ““+++” (≧50 = +++)”; with “478 (YLLHEKLNL; listed as Homo sapiens) [compound 478]”, ““+++” (≧50 = +++)”.
For “479 (SLFGNSGILENV; listed as Homo sapiens) [compound 479]”, the Peptide exchange result is given as ““+++” (≧50 = +++)”.
With “480 (ALLEDSCHYL; listed as Homo sapiens) [compound 480]” the entry was ““+++” (≧50 = +++)”; with “481 (GLIEDYEALL; listed as Homo sapiens) [compound 481]”, ““+++” (≧50 = +++)”; with “484 (SLIEKVTQL; listed as Homo sapiens) [compound 484]”, ““+++” (≧50 = +++)”.
With “485 (NVPDSFNEV; listed as Homo sapiens) [compound 485]” the entry was ““+++” (≧50 = +++)”; with “486 (AVMESIQGV; listed as Homo sapiens) [compound 486]”, ““+++” (≧50 = +++)”.
The same measure for “487 (LLINSVFHV; listed as Homo sapiens) [compound 487]”: ““+++” (≧50 = +++)”.
With “488 (FLAEDPKVTL; listed as Homo sapiens) [compound 488]”, the Peptide exchange result is reported as ““+++” (≧50 = +++)”.
Take “490 (FLLQHVQEL; listed as Homo sapiens) [compound 490]”: the Peptide exchange result is recorded as ““+++” (≧50 = +++)”.
With “491 (GLNDRSDAV; listed as Homo sapiens) [compound 491]” the entry was ““++” (≧20% = ++)”; with “492 (SLFDGFADGLGV; listed as Homo sapiens) [compound 492]”, ““+++” (≧50 = +++)”.
The same measure for “493 (GLLGEKTQDLIGV; listed as Homo sapiens) [compound 493]”: ““+++” (≧50 = +++)”; for “494 (ALQPEPIKV; listed as Homo sapiens) [compound 494]”: ““++” (≧20% = ++)”.
With “495 (FIFSEKPVFV; listed as Homo sapiens) [compound 495]” the entry was ““+++” (≧50 = +++)”; with “496 (FLVEKQPPQV; listed as Homo sapiens) [compound 496]”, ““+++” (≧50 = +++)”.
With “497 (GLLEKLTAI; listed as Homo sapiens) [compound 497]”, the Peptide exchange result is on record as ““+++” (≧50 = +++)”.
With “498 (KLWTGGLDNTV; listed as Homo sapiens) [compound 498]” the entry was ““+++” (≧50 = +++)”; with “500 (SLMEDQVLQL; listed as Homo sapiens) [compound 500]”, ““+++” (≧50 = +++)”.
For the substance “501 (LLDPNVKSIFV; listed as Homo sapiens) [compound 501]”, the Peptide exchange entry is reported as ““+++” (≧50 = +++)”.
With “502 (RLLAQVPGL; listed as Homo sapiens) [compound 502]” the entry was ““+++” (≧50 = +++)”.
The same measure for “503 (SLNHFTHSV; listed as Homo sapiens) [compound 503]”: ““+++” (≧50 = +++)”; for “504 (GLSDGNPSL; listed as Homo sapiens) [compound 504]”: ““++” (≧20% = ++)”; for “505 (SLAPGDVVRQV; listed as Homo sapiens) [compound 505]”: ““++” (≧20% = ++)”.
Consider “506 (KLLGKVETA; listed as Homo sapiens) [compound 506]”, for which the Peptide exchange entry is ““+++” (≧50 = +++)”.
With “507 (KLIDDQDISISL; listed as Homo sapiens) [compound 507]” the entry was ““+++” (≧50 = +++)”.
On to “508 (ILAQEQLVVGV; listed as Homo sapiens) [compound 508]”, for which the Peptide exchange entry is listed as ““+++” (≧50 = +++)”.
As for “509 (FLFDTKPLIV; listed as Homo sapiens) [compound 509]”, the Peptide exchange entry is given as ““+++” (≧50 = +++)”.
The same measure for “510 (KLYSVVSQL; listed as Homo sapiens) [compound 510]”: ““++” (≧20% = ++)”; for “512 (SLSEIVPCL; listed as Homo sapiens) [compound 512]”: ““+++” (≧50 = +++)”.
With “513 (SLWPSPEQL; listed as Homo sapiens) [compound 513]” the entry was ““++” (≧20% = ++)”.
With “514 (ILVDWLVQV; listed as Homo sapiens) [compound 514]” the entry was ““+++” (≧50 = +++)”; with “515 (LLQELVLFL; listed as Homo sapiens) [compound 515]”, ““+++” (≧50 = +++)”.
Regarding “516 (AVGPASILKEV; listed as Homo sapiens) [compound 516]”, the Peptide exchange entry is recorded as ““++” (≧20% = ++)”.
The same measure for “517 (LLMPIPEGLTL; listed as Homo sapiens) [compound 517]”: ““+++” (≧50 = +++)”.
“519 (GLLHLTLLL; listed as Homo sapiens) [compound 519]”: the Peptide exchange result is listed as ““+++” (≧50 = +++)”.
The same measure for “520 (LAVHPSGVAL; listed as Homo sapiens) [compound 520]”: ““+” (≧10% = +)”.
The same measure for “521 (MLLTKLPTI; listed as Homo sapiens) [compound 521]”: ““+++” (≧50 = +++)”.
With “522 (TLWYRSPEV; listed as Homo sapiens) [compound 522]” the entry was ““++” (≧20% = ++)”.
Consider “523 (YQIPRTFTL; listed as Homo sapiens) [compound 523]”, for which the Peptide exchange result is listed as ““++” (≧20% = ++)”.
Turning to “524 (ALIENLTHQI; listed as Homo sapiens) [compound 524]”, the Peptide exchange result was ““++” (≧20% = ++)”.
“525 (VLLEAGEGLVTI; listed as Homo sapiens) [compound 525]”: the Peptide exchange entry was ““+++” (≧50 = +++)”.
With “526 (RLAEVGQYEQV; listed as Homo sapiens) [compound 526]” the entry was ““++” (≧20% = ++)”; with “527 (FLLEPGNLEV; listed as Homo sapiens) [compound 527]”, ““++++” (≧75% = ++++)”.
“528 (SVAEGRALMSV; listed as Homo sapiens) [compound 528]”: the Peptide exchange result was ““+++” (≧50 = +++)”.
With “529 (LLADELITV; listed as Homo sapiens) [compound 529]” the entry was ““+++” (≧50 = +++)”.
Take “530 (VMYADIGGMDI; listed as Homo sapiens) [compound 530]”: the Peptide exchange entry is reported as ““+++” (≧50 = +++)”.
With “531 (YTLPIASSIRL; listed as Homo sapiens) [compound 531]” the entry was ““+++” (≧50 = +++)”; with “537 (TLAPGEVLRSV; listed as Homo sapiens) [compound 537]”, ““+++” (≧50 = +++)”.
With “538 (LLLAHIIAL; listed as Homo sapiens) [compound 538]” the entry was ““++” (≧20% = ++)”.
The same measure for “539 (ALFDAQAQV; listed as Homo sapiens) [compound 539]”: ““+++” (≧50 = +++)”; for “541 (SMLEPVPEL; listed as Homo sapiens) [compound 541]”: ““+++” (≧50 = +++)”.
Turning to “542 (RVWDISTVSSV; listed as Homo sapiens) [compound 542]”, the Peptide exchange entry is ““+++” (≧50 = +++)”.
Consider “543 (GLLPTPITQQASL; listed as Homo sapiens) [compound 543]”, for which the Peptide exchange result is given as ““+++” (≧50 = +++)”.
With “544 (LLWDVPAPSL; listed as Homo sapiens) [compound 544]” the entry was ““+++” (≧50 = +++)”; with “545 (LLADLLHNV; listed as Homo sapiens) [compound 545]”, ““+++” (≧50 = +++)”; with “546 (VMIAGKVAVV; listed as Homo sapiens) [compound 546]”, ““+++” (≧50 = +++)”.
For the substance “547 (TLDITPHTV; listed as Homo sapiens) [compound 547]”, the Peptide exchange entry is ““+++” (≧50 = +++)”.
With “548 (ALWENPESGEL; listed as Homo sapiens) [compound 548]” the entry was ““++” (≧20% = ++)”.
With “549 (AMLENASDIKL; listed as Homo sapiens) [compound 549]” the entry was ““+++” (≧50 = +++)”.
With “550 (FLYDEIEAEVNL; listed as Homo sapiens) [compound 550]” the entry was ““+++” (≧50 = +++)”; with “551 (KLYESLLPFA; listed as Homo sapiens) [compound 551]”, ““+++” (≧50 = +++)”.
“552 (GLLDLPFRVGV; listed as Homo sapiens) [compound 552]”: the Peptide exchange result was ““++++” (≧75% = ++++)”.
With “553 (SLLNQDLHWSL; listed as Homo sapiens) [compound 553]” the entry was ““++++” (≧75% = ++++)”; with “554 (LLMPSSEDLLL; listed as Homo sapiens) [compound 554]”, ““+++” (≧50 = +++)”.
With “555 (YVLEGLKSV; listed as Homo sapiens) [compound 555]” the entry was ““+++” (≧50 = +++)”; with “556 (FLTDLEDLTL; listed as Homo sapiens) [compound 556]”, ““+++” (≧50 = +++)”.
The same measure for “557 (KLYDDMIRL; listed as Homo sapiens) [compound 557]”: ““+++” (≧50 = +++)”.

Values taken from patent US20170002055A1, “Novel peptides and combination of peptides for use in immunotherapy against ovarian cancer and other cancers” (immatics biotechnologies GmbH, priority 2015, published 2017).
